According to patent US20160122431A1:

Biological target: murine B7-DC (murine) (UniProt Q9WUL5)
Assay: flow cytometry; murine bone marrow derived DC incubated with or without soluble PD-1.Ig, then stained with sHIgM12 (the competitor read out)

murine B7-DC (murine), sequence (Q9WUL5 20-247): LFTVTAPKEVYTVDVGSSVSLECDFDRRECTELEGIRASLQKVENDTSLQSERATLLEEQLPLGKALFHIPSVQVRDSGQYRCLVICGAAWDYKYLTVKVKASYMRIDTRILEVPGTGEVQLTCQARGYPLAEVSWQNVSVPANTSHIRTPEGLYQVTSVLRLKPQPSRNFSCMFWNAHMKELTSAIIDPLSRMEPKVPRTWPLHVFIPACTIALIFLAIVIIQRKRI
PD-1.Ig fusion protein (Fc fusion), sequence (Q02242 25-169): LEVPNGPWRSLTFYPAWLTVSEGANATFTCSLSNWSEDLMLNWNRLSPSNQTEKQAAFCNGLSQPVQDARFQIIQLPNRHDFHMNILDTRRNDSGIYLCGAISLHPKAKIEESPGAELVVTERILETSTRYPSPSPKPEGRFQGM

Substance: PD-1.Ig fusion protein (Fc fusion)
- sHIgM12 staining left, percent of the level in the absence of PD-1: 50%
